This note sets out measurements from patent US20260022151A1 (TSINGHUA UNIVERSITY, published 2026).

Test [1] deals with T1, DR5-GFP.
T1 construct: Co-expressed with CXCR4-mCherry on transfected HEK293T cells; also called exogenous DR5; DR5 fused with a GFP tag at the C-terminal
Kind of test: live-cell confocal colocalisation, HEK293T cells co-expressing CXCR4-mCherry and DR5-GFP. How it is done: (§1) HEK293T cells were seeded at a density of 5×10⁵ cells/well into a 4-well chamber 35 mm culture dish (purchased from In Vitro Scientific) and cultured at 37° C., 5% CO₂ until the cell density reached approximately 60-70% confluence. Then, plasmids pCDNA3.1-CXCR4-mCherry and pCDNA3.1-DR5-GFP were gently pipetted and mixed with Opti-MEM Medium (purchased from Invitrogen. Inc.) without antibiotics and serum in a sterile centrifuge tube, in an amount of 0.5 μg pCDNA3.1-CXCR4-mCherry and 0.5 μg pCDNA3.1-DR5-GFP per well. Lipo8000™ transfection reagent (purchased from Shanghai Bio-Tech Biotechnology Co., Ltd.) was added and gently pipetted and mixed again to obtain a plasmid solution for transfection (i.e., each 100 μl Opti-MEM Medium contained 0.5 μg of plasmids pCDNA3.1-CXCR4-mCherry and pCDNA3.1-DR5-GFP, and 1.6 μl Lipo8000). The evenly mixed plasmid solution was added dropwise to each well, gently mixed, and then cultured for 24-36 hours at 37° C., and 5% CO₂ to obtain HEK293T cells co-expressing CXCR4-mCherry and DR5-GFP.
(§2) 200 nM CN-P2S2-DN protein or its different truncated variants P2S2-CN, P2S2. P2S2-DN (all labeled with fluorescent dye Alexa 647) were added to the above cell culture medium. HEK293T cells treated in the same manner with blank solution under the same conditions were used as negative controls. […]

Test [2] concerns the target T2, CXCR4-mCherry.
T2 construct: Co-expressed with DR5-GFP on transfected HEK293T cells; also called exogenous CXCR4; CXCR4 fused with an mCherry tag at the C-terminal
The test is described as above. How it is done: as §1, §2

The target in test [3] is T1, DR5-GFP. Nature of the test: time-lapse confocal imaging, HEK293T cells co-expressing CXCR4-mCherry and DR5-GFP, 200 nM.
Test [4] addresses T2, CXCR4-mCherry. Described as above.
Test [5] concerns the target T3, endogenous CXCR4 receptor on human tumor cells (human, UniProt P61073 1-352).
T3 construct: whole, on cells; also called CXC motif chemokine receptor 4
Kind of test: FRAP and confocal imaging on SJSA-1 cells, 200 nM. How it is done:
Fluorescence recovery after photobleaching (FRAP) is an experiment commonly used to verify liquid-liquid phase separation, see, for example, Alberti, Simon et al., Journal of Molecular Biology 430(23): 4806-4820, 2018: McSwiggen, David T et al., Genes & Development 33(23-24): 1619-1634, 2019. Therefore, FRAP was performed on the same droplets as in Example 4 that contain 12.5 μM CN-P2S2-DN protein. After bleaching with 488 nm laser light at a laser intensity of 50% for 1 second, fluorescence images were taken under a NIKON A1R HD25 laser confocal microscope (purchased from Nikon, Inc.) with a 100× oil immersion objective lens. The images were analyzed and exported using NIS-Elements AR Analysis (Nikon, Inc.) and Image J (National Institutes of Health) software.
SJSA-1 cells were treated with 200 nM CN-P2S2-DN (labeled with Alexa 561) for 4 hrs in the same manner as in Example 5, and photobleaching analysis was performed.

Test [6] deals with endogenous DR5 receptor on human tumor cells (human, UniProt O14763 56-440). Kind of test: cell-based or functional assay.

T2 sequence (chain, as listed by the source limits assumed): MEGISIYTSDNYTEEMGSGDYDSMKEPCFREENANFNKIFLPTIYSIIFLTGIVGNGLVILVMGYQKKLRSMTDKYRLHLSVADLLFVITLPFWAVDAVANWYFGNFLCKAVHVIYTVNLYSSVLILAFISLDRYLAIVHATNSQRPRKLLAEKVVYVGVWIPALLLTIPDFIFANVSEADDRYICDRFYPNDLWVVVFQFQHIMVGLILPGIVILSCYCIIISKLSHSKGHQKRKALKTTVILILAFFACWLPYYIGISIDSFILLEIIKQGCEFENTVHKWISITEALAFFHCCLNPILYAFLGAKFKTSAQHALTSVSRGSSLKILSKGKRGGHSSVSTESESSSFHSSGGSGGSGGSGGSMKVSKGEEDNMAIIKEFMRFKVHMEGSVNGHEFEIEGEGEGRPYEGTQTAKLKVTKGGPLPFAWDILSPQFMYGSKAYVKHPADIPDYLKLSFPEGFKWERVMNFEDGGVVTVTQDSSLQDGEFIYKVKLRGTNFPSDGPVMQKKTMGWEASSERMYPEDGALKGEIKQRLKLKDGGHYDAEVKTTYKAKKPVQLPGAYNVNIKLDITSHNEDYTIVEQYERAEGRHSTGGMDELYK
T3 sequence (P61073 whole entry): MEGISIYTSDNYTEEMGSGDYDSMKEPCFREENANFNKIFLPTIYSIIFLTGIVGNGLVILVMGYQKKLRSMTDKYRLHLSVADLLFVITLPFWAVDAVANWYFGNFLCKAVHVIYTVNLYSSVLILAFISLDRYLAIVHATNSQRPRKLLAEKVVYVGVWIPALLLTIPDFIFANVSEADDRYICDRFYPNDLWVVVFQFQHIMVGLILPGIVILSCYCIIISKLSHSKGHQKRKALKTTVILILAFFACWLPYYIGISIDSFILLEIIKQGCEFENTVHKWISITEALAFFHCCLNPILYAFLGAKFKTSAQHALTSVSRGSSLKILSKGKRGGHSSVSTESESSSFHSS

B1: truncated variant P2S2 (other)
chain: MKGGSWGGSKKTPPPVPPRTTSKGGSGGSGGSGGSKKTPPPVPPRTTSKGGSGGSGGSGGSDLNMPAYVKFNYMAEREDELSLIKGTKVIVMEKSSDGWWRGSYNGQVGWFPSNYVTEEGDSPLASGAGGSEGGGSEGGTSGATDLNMPAYVKFNYMAEREDELSLIKGTKVIVMEKSSDGWWRGSYNGQVGWFPSNYVTEEGDSPLG
modifications: fluorescent dye label by Alexa Fluor C5 maleimide; labelled residue not stated
On to B1, for which the binding result in test [1] and in test [2] was “no binding (tested: 200 nM)” in each case.

B2: recombinant protein CN-P2S2-DN (designed binder)
chain: EVQLMESGGGLVQAGGSLRLSCAASGRTFNNYAMGWFRRAPKGEREFVAAITRSGVRSGVSAIYGDSVKDRFTISRDNAKNTLYLQMNSLKPEDTAVYTCAASAIGSGALRRFEYDYSGQGTQVTVSSGGSGGSGGSGGSASMKGGSWGGSKKTPPPVPPRTTSKGGSGGSGGSGGSKKTPPPVPPRTTSKGGSGGSGGSGGSDLNMPAYVKFNYMAEREDELSLIKGTKVIVMEKSSDGWWRGSYNGQVGWFPSNYVTEEGDSPLASGAGGSEGGGSEGGTSGATDLNMPAYVKFNYMAEREDELSLIKGTKVIVMEKSSDGWWRGSYNGQVGWFPSNYVTEEGDSPLGSMGMGEVQLLESGGGLVQPGGSLRLSCAASGTFDKINNMGWYRQAPGKQRDLVAQITPGGITDYADSVKGRFTISRDNSKNTLYLQMNSLRPEDTAVYYCNAEILKRAYIDVYVNYWGQGTLVTVSS
modifications: fluorescent dye label by Alexa Fluor C5 maleimide (Alexa 647, Alexa 561 or Alexa 546 in the imaging experiments); labelled residue not stated
notes: MBP removed by TEV protease; Unlabelled, endotoxin-free protein was used in the apoptosis assays; also called synthetic ligand CN-P2S2-DN; recombinant ligand CN-P2S2-DN
As for B2, in test [3], the binding result is on record as “binds”. For the same molecule, the binding result in test [4] was “binds”. In addition, the binding result in test [5] is “binds”. In test [6], the “IC50 of apoptosis induction in CXCR4/DR5 COLO-205 cells (Annexin V-FITC/PI flow cytometry)” value was 28.9 nM; the “IC50 of apoptosis induction in CXCR4/DR5 SJSA-1 cells (Annexin V-FITC/PI flow cytometry)” value amounted to 10.1 nM; the “apoptosis ratio in other CXCR4+/DR5+ double-positive tumor cell lines, 200 nM, 5 hr” value was greater than 40%; the “apoptosis ratio, COLO-205 cells, 100 nM, 3 hr” value is 74%. Besides, in test [6], the “apoptosis ratio, SJSA-1 tumor cells, 100 nM, 3 hr” value is 82.5%.
